Data published in the supplement of paper PMC12764529.
± gives the half width of the 95% confidence interval.

Key:
[1] = folding stability dG unfold from chymotrypsin proteolysis; higher = more stable
How it was run: (§1)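 Unfolding free energy was derived, per protease or combined, by relating Bayesian-fitted K50 values from sequencing counts to a sequence-predicted unfolded-state K50 and a shared folded-state K50. The underlying digests exposed cysteine-free mini-proteins under 80 residues, in a PA-tagged cDNA display construct, to trypsin and chymotrypsin at 11 threefold-diluted concentrations and to a no-protease condition. A filter kept only designs with AlphaFold2 dimer inter-PAE above 15.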

[2] = folding stability dG unfold (combined trypsin and chymotrypsin); higher = more stable
How it was run: as §1

[3] = folding stability dG unfold from trypsin proteolysis; higher = more stable
How it was run: as §1

Sequence	folding stability dG unfold [1] [kcal/mol]	folding stability dG unfold [2] [kcal/mol]	folding stability dG unfold [3] [kcal/mol]
SAGGSAGGNKIWIPITITFMVPVRKDPDGKPKLSPEDPDRWKPVEFEIPIEIDPDPDNGKIKIWSAGGSAGG [r6_537_TrROS]	0.701 ± 0.25	1.26 ± 0.24	1.5 ± 0.042
SAGGSAGGSAGGDPLPVTFTIPLEDDTTAKAVLSGDLVEVTIPNGKKYVLIPNPAVLGSSAGGSAGGSAGGS [r10_1176_TrMRF]	-0.232 ± 0.22	-0.216 ± 0.15	-0.144 ± 0.11
SAGGSAGGSEKKPPEVTVVIKLPKGTSLEELLAALPPGAKAEIVEVVKVDEEKNEVYVKIRLTSAGGSAGGS [r12_469_TrROS_Hall]	2.71 ± 0.04	2.61 ± 0.095	2.26 ± 0.11
SAGGMPVTVTLDLSDLTPEEIERLLTEAVEAHPDPAAVTVRVKTDDPALEAAVRAAAEALPAVAVTLESAGG [r13_718_JUSTAS]	0.263 ± 0.051	0.0912 ± 0.21	-0.86 ± 0.54
SAGGETVTITIKVKGKEITVTFNKDTGKVTITDKDTGKTVTITLPAGEEPTLEELLEALKKLGFEIEPSAGG [r13_687_TrROS_Hall]	4.18 ± 0.095	4.32 ± 0.099	4.11 ± 0.18
SAGGSAGGSEKIIEELKKKFPGLKIDKIEITVKKKKITIELKPPPKVYLTKEELEKKGYKIEKSAGGSAGGS [r12_3_TrROS_Hall]	0.449 ± 0.33	0.87 ± 0.22	1.33 ± 0.041
SAELPPGMRLVIDDIEPMRNNGKPMLMIKLSIYDPAKPGKEITHWTIMVTNDNIMAIQPTTYRIPPDDISAG [r14_651_TrROS]	2.63 ± 0.12	2.57 ± 0.22	2.64 ± 0.075
SAGGEELARRLAEELRELGLEVEVVDVDLEEGKITIRVRPAPPPPPVTERRTRRRPDGREVTEERVLSAGGS [r8_318_TrROS_Hall]	0.0369 ± 0.15	0.214 ± 0.16	0.282 ± 0.21
SATLTFTATLPDGSRVLEVTAEPRPDGTVTIRMRAEFTFAPGVTVTVPATITVPVPPPPALPPDDPRLFSAG [r14_95_TrMRF]	3.33 ± 0.05	3.09 ± 0.086	2.73 ± 0.057
SAGGSAGGSAGGMKVIPFESLEEAREYIKANPDENVLLEFPDALLELTKPDDIKKIEKKPSAGGSAGGSAGG [r7_532_JUSTAS]	0.36 ± 0.12	0.28 ± 0.084	-0.0919 ± 0.12
SAGGSEKVTIELEFRNPETGELIATVKIELERLPNGEIKAKIEFTNLPEGVELSEEMKKLLEELLKSAGGSA [r2_7_TrROS_Hall]	2.93 ± 0.19	2.77 ± 0.34	2.5 ± 0.31
SAGGSAGGSAGGMLTAVFTTPGNVRRLVPFSSEEEARALAEAEGVEVEFLDPAEAARLLSAGGSAGGSAGGS [r10_66_JUSTAS]	-0.497 ± 0.25	-0.476 ± 0.14	-0.569 ± 0.17
SAGGSAGGGYELRVTVYDPRTGKPVAEATFTATSPEEAEARFEEIRRALPPEYLVFAEIRPVPESAGGSAGG [r6_688_TrMRF]	5.19 ± 0.13	5.25 ± 0.11	4.94 ± 0.38
SAGGSAGGYIMIPPGAEIDVNPENGKIKIKFRNPDNGEEEKITFDVPPGVKIHMWDNWIMIELPSAGGSAGG [r6_804_TrROS]	3.14 ± 0.12	3.29 ± 0.29	3.3 ± 0.18
SAGGGKKYRVTLELTLPDGTKLTLEFEFEVVPPAVPKPVVTTSLDDIAEFDPETGTAIDKKNKKPIPLPSAG [r5_807_TrMRF]	3.1 ± 0.065	2.66 ± 0.19	1.5 ± 0.12
SAGGSAAPLPPDETEVRVEYRYDPEKGVLVITTTTTRFTPEGGATPLETRPVVVEVTEEEKKKVELSAGGSA [r15_191_JUSTAS]	1.04 ± 0.095	1.17 ± 0.1	1.25 ± 0.046
SAGGSAGGSAGKIKIEKDKNGNYRVILKNGKVYEFKSIEEAKEELKKKFPNIKEIEIVKTSAGGSAGGSAGG [r11_806_TrROS_Hall]	4.29 ± 0.29	3.87 ± 0.3	3.21 ± 0.18
SAGSKTITLEFNFEELKVKVTVTYDPEGEPTVTVTTTIYAKGGEKLETKTTTVTASPDDPVVKAFLESSSAG [r5_964_JUSTAS]	3.16 ± 0.084	2.77 ± 0.074	2.19 ± 0.041
SAGGMPVTVEITVDLVLDPRYRPRPVYPPGETWREPERRVLPVTFTATFGDPEDAERAAVELLRALGVSAGG [r13_35_TrMRF]	1.73 ± 0.032	1.45 ± 0.062	0.866 ± 0.041
SAGGSAGGSAGGKLPPGDIIPMEFEAEFPVYKRDPEGGDWEPIGPMRIDFTIIIRLPPGSAGGSAGGSAGGS [r10_1115_TrROS]	2.91 ± 0.14	2.67 ± 0.22	2.5 ± 0.22
SALRPDIPFDAVEKVVIPARHPLLGGVVEAGVYRLKDSDAVLVVVTFPDGSKLVFLVRPDDVLDVLDAISAG [r14_240_TrMRF]	2.969 ± 0.01	2.75 ± 0.045	2.38 ± 0.066

Sequence	folding stability dG unfold [1] [kcal/mol]	folding stability dG unfold [2] [kcal/mol]	folding stability dG unfold [3] [kcal/mol]
SAGGSAGGSAGFKLPPGQEVVFQVSIKLPDGPTQTLEDLENMPPENIDFLEIEISWVPVDSAGGSAGGSAGG [r11_899_TrROS]	1.81 ± 0.12	1.57 ± 0.2	1.09 ± 0.14
SAGGSADDVKIKVEYERNPENGYGQITVEVEDPDGKDLKVEIMFPNMTPEEMEKQAKDIAKEIAKKSAGGSA [r15_526_TrROS]	1.26 ± 0.19	0.719 ± 0.23	-0.526 ± 0.21
SAGGSAGGSKMRERTITFPNAKITIWYHPDGNVRMEVMNPGNGKPKREIWMKPGDIEEILKKFSAGGSAGGS [r20_129_TrROS]	2.58 ± 0.038	2.32 ± 0.049	1.62 ± 0.043
SAGGSAGGSKYYRVRFKEEIEITLENGEKLKIKKGDVIVVPSKEDLDRLKALFPNLEVEVEPVSAGGSAGGS [r12_987_TrROS_Hall]	3.91 ± 0.043	3.7 ± 0.099	3.16 ± 0.1
SAGGSAGGSADYFMVVIKYYPPNGEKQEHPFSVPFKDEEDLKDEIKEQAPPGREVEIEIFPMSAGGSAGGSA [r18_60_TrROS]	-0.0385 ± 0.17	0.647 ± 0.12	0.956 ± 0.083
SAGKKSIVAPYEELKKIIELLPSGKKYKVIASDPNGKKIEGTIEVKGGKAKIEPGPKNTFKDLLIVITGSAG [r5_85_TrMRF]	0.3 ± 0.13	0.248 ± 0.12	0.248 ± 0.061
SAGGSVEEIAERLAKELAPPDERVEVEVEEIVTDPVVGKIKEVKIKATIYPPDGTTRTVEYTIPYDELSAGG [r13_215_JUSTAS]	0.704 ± 0.028	0.612 ± 0.056	0.407 ± 0.029
SAGGSAGGSAGGFNIEVVPGEPGWVIKIEFPDHPITAFVDPEDGKLWIYNPDNGMIFPLSAGGSAGGSAGGS [r10_434_TrROS]	1.78 ± 0.084	2.03 ± 0.077	2.2 ± 0.042
SAIVLVVADDSPEEAVERARRFAATLRERLVREGYPDADVPIVVEVRAVPPPVPVPVRLPDGDEVVPAPSAG [r14_475_TrMRF]	1.7 ± 0.044	1.32 ± 0.064	0.647 ± 0.1
SAGGGSTTTRTIGSKDGTVATVTVTTDPATGTTTVTISSPSPEVLEEVAAQLGLPVREVLPDGTVVLASAGG [r13_937_JUSTAS]	1.25 ± 0.015	1.08 ± 0.037	0.659 ± 0.023
SAGGSAGGKGGKPKIKLEPINTNPNGWQTFRFEVTPEAIDDLMDDFPNVQVERHPGEMYITVRNSAGGSAGG [r6_395_TrROS]	-0.0427 ± 0.39	-0.104 ± 0.23	-0.418 ± 0.56
SAGGSAGGSAGGGSSVITTTETDPANGLLTTTTTTINGSETVPSSTVSPVPPPPPPSTLSAGGSAGGSAGGS [r10_354_JUSTAS]	0.0312 ± 0.094	1.11 ± 0.12	1.67 ± 0.14
SAGGSAGGSMITLTLPDEEALRAYVEQLVADAGTEITEVTVTPLAPDTVEAEVSIDPTDPVGLSAGGSAGGS [r12_647_JUSTAS]	0.426 ± 0.065	0.858 ± 0.098	1.09 ± 0.022
SAGGMELPPEVKTIAEKLEAEGYDVLAVPVGDSYVIAVDGKVAATPEEFEKLKKIPGVKKLITIDLPSAGGS [r16_275_TrMRF]	0.583 ± 0.049	0.541 ± 0.13	0.432 ± 0.056
SAGGSAGGSKKKKKKKKKIKVLIRNKKTGKWFEAEAEVVDGELYIKVNGKIYKIKGPVEIELVSAGGSAGGS [r12_683_TrROS_Hall]	3.686 ± 0.019	3.3 ± 0.048	2.38 ± 0.043
SAGGSAGGSAGGSAGRLVKETKTTSYIFTFKKPTGEPISKKTSFVTSSLILLSDPSKISSAGGSAGGSAGGS [r4_450_JUSTAS]	4.6 ± 0.39	4.6 ± 0.44	4.18 ± 0.37
SAGGSKYPIEVTDPENGNPVLLEDVESLASVTQEEPGDGRSLYTATVPETGEPVFLTSPEKLAAALSSAGGS [r8_206_JUSTAS]	0.0753 ± 0.19	0.384 ± 0.11	0.593 ± 0.035
SAGGSMPYKTLEESESEIYDPSNGNVKYKVKTETILLPDGTILVKETIYDPETGTTETKTYTIPKGSAGGSA [r2_13_JUSTAS]	1.82 ± 0.13	1.79 ± 0.1	1.54 ± 0.14
SAGGSAGGSAGGGPSSMVTVETKEELLTLPNGEKLIKTTTTTKTPTATTTTTTVLPAELLSAGGSAGGSAGG [r7_682_JUSTAS]	0.561 ± 0.068	0.515 ± 0.2	0.0664 ± 0.063
SAGGSAGGSAGGLVPPDAVIPTETTAEEPVYVIDPVTGELTPIGPGVVRRKITRRVPRPSAGGSAGGSAGGS [r10_1115_JUSTAS]	0.863 ± 0.056	0.514 ± 0.11	-0.968 ± 0.22
SAGGSAKGKKTRTITIMAPFDNKEEAREQAEEIADNIMNNLPDDMKIKVEVSWNPEDNYVMATIRISAGGSA [r15_981_TrROS]	0.842 ± 0.11	0.707 ± 0.25	0.404 ± 0.3
